The record followed here is patent publication US20230383012A1 (published 2023).

A word on the Kd: it is the equilibrium constant for the complex coming apart.

One assay has as its target XPL2-BC-9H4-hIgG1. The experiment in a line: Biacore. (In SPR one partner is held on a chip, and binding of the other changes the refractive index at the surface.)
For the next assay, the target named is XPL2-BC-7D1-hIgG1. Nature of the assay: Biacore.
In the next assay the target is XPL2-BC-5C11-hIgG1. The experiment in a line: Biacore.
The next assay concerns the target XPL2-BC-12B9-hIgG1. The experiment in a line: Biacore.
The next assay addresses XPL2-BC-12B12-hIgG1. Nature of the assay: Biacore.
A further assay has as its target XPL2-BC-8F4-hIgG1. Nature of the assay: Biacore.
The target in the next assay is XPL2-BC-12A11-hIgG1. Nature of the assay: Biacore.
Another assay concerns the target XPL2-BC-10H5-hIgG1. The experiment in a line: Biacore.
A further assay concerns the target XPL2-BC-8H8-hIgG1. The experiment in a line: Biacore.
A further assay concerns the target XPL2-BC-13G1-hIgG1. The experiment in a line: Biacore.
The next assay has as its target XPL2-BC-3A9-hIgG1. The experiment in a line: Biacore.
The next assay concerns the target XPL2-BC-12B7-hIgG1. Nature of the assay: Biacore.
The target in the next assay is XPL2-BC-16G11-hIgG1. Nature of the assay: Biacore.
Another assay has as its target XPL2-BC-6H10-hIgG1. Nature of the assay: Biacore.
A further assay addresses XPL2-BC-5B6-hIgG1. Nature of the assay: Biacore.
Another assay has as its target XPL2-BC-7B10-hIgG1. Nature of the assay: Biacore.
The next assay deals with XPL2-BC-8G5-hIgG1. Nature of the assay: Biacore.
Another assay addresses XPL2-BC-7D3-hIgG1. Nature of the assay: Biacore.
The next assay has as its target XPL2-BC-8G2-hIgG1. Nature of the assay: Biacore.
A further assay addresses XPL2-BC-7E9-hIgG1. Nature of the assay: Biacore.
A further assay has as its target XPL2-BC-1E12-hIgG1. The experiment in a line: Biacore.
For the next assay, the target named is XPL2-BC-1G10-hIgG1. Nature of the assay: Biacore.
The next assay concerns the target XPL2-BC-8H11-hIgG1. Nature of the assay: Biacore.
The next assay concerns the target XPL2-BC-5F1-hIgG1. Nature of the assay: Biacore.
In a further assay the target is XPL2-BC-12B2-hIgG1. Nature of the assay: Biacore.
Another assay has as its target XPL2-BC-12A6-hIgG1. Nature of the assay: Biacore.
Another assay has as its target XPL2-BC-5F2-hIgG1. Nature of the assay: Biacore.
The target of the next assay is Cyno PDL1. The experiment in a line: Biacore; EXP1.
A further assay has as its target Human PDL1 (human, UniProt Q9NZQ7 19-238). Nature of the assay: Biacore; EXP1.
In a further assay the target is human CD28 antigen (human, UniProt P10747 19-152). The experiment in a line: Octet; VHVL.

B1: PDL2 (ligand)
chain: LFTVTVPKELYIIEHGSNVTLECNFDTGSHVNLGAITASLQKVENDTSPHRERATLLEEQLPLGKASFHIPQVQVRDEGQYQCIIIYGVAWDYKYLTLKVKASYRKINTHILKVPETDEVELTCQATGYPLAEVSWPNVSVPANTSHSRTPEGLYQVTSVLRLKPPPGRNFSCVFWNTHVRELTLASIDLQSQMEPRTHPT
On to B1, for which the Kd was 73.2 nM with XPL2-BC-9H4-hIgG1; 5.66 nM in the assay with XPL2-BC-7D1-hIgG1; 1.77 nM with XPL2-BC-5C11-hIgG1; 5.88 nM with XPL2-BC-12B9-hIgG1; 73.7 nM in the assay with XPL2-BC-12B12-hIgG1; 7.13 nM with XPL2-BC-8F4-hIgG1. Moreover, the Kd with XPL2-BC-12A11-hIgG1 stood at 21.8 nM; in the assay with XPL2-BC-10H5-hIgG1, 64.9 nM; with XPL2-BC-8H8-hIgG1, 3.75 nM; in the assay with XPL2-BC-13G1-hIgG1, 5.1 nM; with XPL2-BC-3A9-hIgG1 it was 192 nM; in the assay with XPL2-BC-12B7-hIgG1 it was 8.44 nM. Besides, the Kd with XPL2-BC-16G11-hIgG1 is 0.491 nM; with XPL2-BC-6H10-hIgG1 it was 6.02 nM; with XPL2-BC-5B6-hIgG1, 0.765 nM; with XPL2-BC-7B10-hIgG1 it was 1.77 nM; with XPL2-BC-8G5-hIgG1 it was 1.09 nM; with XPL2-BC-7D3-hIgG1, 1.49 nM. Besides, the Kd with XPL2-BC-8G2-hIgG1 came to 0.39 nM; with XPL2-BC-7E9-hIgG1, 0.25 nM; with XPL2-BC-1E12-hIgG1, 80.7 nM; with XPL2-BC-1G10-hIgG1, 5.87 nM; with XPL2-BC-8H11-hIgG1, 0.525 nM; with XPL2-BC-5F1-hIgG1, 12.5 nM. For the same molecule, the values for the Kd with XPL2-BC-12B2-hIgG1, with XPL2-BC-12A6-hIgG1 and with XPL2-BC-5F2-hIgG1 were 15.1 nM, 303 nM and 11.6 nM, respectively.

B2: XENP 37559 (H1L1) (bispecific antibody)
chain 1: EVQLLESGGGLVQPGGSLRLSCAASGFTFSSYDMSWVRQAPGKRLEWVSTISSGGSFTHYPDSVKGRFTISRDNSKNTLYLQMNSLRAEDTAVYYCVRRSGDWYFDVWGAGTTVTVSSASTKGPSVFPLAPSSKSTSGGTAALGCLVKDYFPEPVTVSWNSGALTSGVHTFPAVLQSSGLYSLSSVVTVPSSSLGTQTYICNVNHKPSDTKVDKKVEPKSCDKTHTCPPCPAPPVAGPSVFLFPPKPKDTLMISRTPEVTCVVVDVKHEDPEVKFNWYVDGVEVHNAKTKPREEEYNSTYRVVSVLTVLHQDWLNGKEYKCKVSNKALPAPIEKTISKAKGQPREPQVYTLPPSREEMTKNQVSLTCDVSGFYPSDIAVEWESDGQPENNYKTTPPVLDSDGSFFLYSKLTVDKSRWEQGDVFSCSVMHEALHNHYTQKSLSLSPGK
chain 2: not shown
chain 3: EIVLTQSPGTLSLSPGERATLSCRVSSSISSSNLHWYQQKPGQSPRPLIYGTSNLASGVPVRFSGSGSGTDYTLTISRLEPEDFAVYYCQQWSSYPLYTFGGGTKVEIKRTVAAPSVFIFPPSDEQLKSGTASVVCLLNNFYPREAKVQWKVDNALQSGNSQESVTEQDSKDSTYSLSSTLTLSKADYEKHKVYACEVTHQGLSSPVTKSFNRGEC
As to B2, the Kd with Cyno PDL1 was determined as 2.2 nM; with Human PDL1 it was 2.6 nM.

B3: H1.1_L1.71 (antibody, V domains shown)
VH: EVQLLESGGGLVQPGGSLRLSCAASGFTFPSRDMSWVRQAPGKRLEWVSTISSGGSFTHYPDSVKGRFTISRDNSKNTLYLQMNSLRAEDTAVYYCVRRSGDWYFDVWGAGTTVTVSS
VL: EIVLTQSPGTLSLSPGERATLSCRVSSSIQSTNLHWYQQKPGQSPRPLIYGTSTLATGVPVRFSGSGSGTDYTLTISRLEPEDFAVYYCQQWSSYPLYTFGGGTKVEIK
For the molecule B3, the dissociation constant (Kd) with human CD28 antigen is 96 nM.

B4: H1.1_L1 (antibody, V domains shown)
VH: EVQLLESGGGLVQPGGSLRLSCAASGFTFPSRDMSWVRQAPGKRLEWVSTISSGGSFTHYPDSVKGRFTISRDNSKNTLYLQMNSLRAEDTAVYYCVRRSGDWYFDVWGAGTTVTVSS
VL: EIVLTQSPGTLSLSPGERATLSCRVSSSISSSNLHWYQQKPGQSPRPLIYGTSNLASGVPVRFSGSGSGTDYTLTISRLEPEDFAVYYCQQWSSYPLYTFGGGTKVEIK
As to B4, in the assay with human CD28 antigen, the Kd is 600 nM.

B5: H1_L1.71 (antibody, V domains shown)
VH: EVQLLESGGGLVQPGGSLRLSCAASGFTFSSYDMSWVRQAPGKRLEWVSTISSGGSFTHYPDSVKGRFTISRDNSKNTLYLQMNSLRAEDTAVYYCVRRSGDWYFDVWGAGTTVTVSS
VL: EIVLTQSPGTLSLSPGERATLSCRVSSSIQSTNLHWYQQKPGQSPRPLIYGTSTLATGVPVRFSGSGSGTDYTLTISRLEPEDFAVYYCQQWSSYPLYTFGGGTKVEIK
In the assay with human CD28 antigen, B5 returned a Kd of 180 nM.

B6: H1L1 (antibody, V domains shown)
VH: EVQLLESGGGLVQPGGSLRLSCAASGFTFSSYDMSWVRQAPGKRLEWVSTISSGGSFTHYPDSVKGRFTISRDNSKNTLYLQMNSLRAEDTAVYYCVRRSGDWYFDVWGAGTTVTVSS
VL: EIVLTQSPGTLSLSPGERATLSCRVSSSISSSNLHWYQQKPGQSPRPLIYGTSNLASGVPVRFSGSGSGTDYTLTISRLEPEDFAVYYCQQWSSYPLYTFGGGTKVEIK
Consider B6, for which the Kd with human CD28 antigen was found to be 1000 nM.
